Values quoted from earlier work, collected in PMC7396566.

What was measured:
[1] = target: TSLP:TSLPR complex (Homo sapiens) (UniProt Q969D9)
TSLP (Homo sapiens) = TSLP (Homo sapiens) (UniProt Q969D9)
IL-7Rα (Homo sapiens) = IL-7Rα (Homo sapiens) (UniProt P16871)

Chain of TSLPR (Q9HC73 23-231): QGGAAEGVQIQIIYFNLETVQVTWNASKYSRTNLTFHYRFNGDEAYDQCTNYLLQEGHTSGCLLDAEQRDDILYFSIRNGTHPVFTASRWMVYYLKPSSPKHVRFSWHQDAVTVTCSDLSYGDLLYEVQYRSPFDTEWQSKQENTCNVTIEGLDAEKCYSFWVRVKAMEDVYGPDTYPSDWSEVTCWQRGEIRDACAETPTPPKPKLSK

Substance: IL-7Rα (from UniProt P16871)
- Kd [1]: 29 nM

Substance: TSLPR (from UniProt Q9HC73)
- Kd (TSLP (Homo sapiens)): 32 nM
- Kd (IL-7Rα (Homo sapiens)): 20000 nM
